{"source": "patent US20250170216A1", "about": "(Protagonist Therapeutics, Inc., priority 2022, published 2025)", "key": {"[1]": {"target": "T1, ferroportin fused to green fluorescent protein (Mus musculus, UniProt Q9JHI9)", "T1 construct": "expressed in transfected cells", "T1 sequence (Q9JHI9 1-570)": "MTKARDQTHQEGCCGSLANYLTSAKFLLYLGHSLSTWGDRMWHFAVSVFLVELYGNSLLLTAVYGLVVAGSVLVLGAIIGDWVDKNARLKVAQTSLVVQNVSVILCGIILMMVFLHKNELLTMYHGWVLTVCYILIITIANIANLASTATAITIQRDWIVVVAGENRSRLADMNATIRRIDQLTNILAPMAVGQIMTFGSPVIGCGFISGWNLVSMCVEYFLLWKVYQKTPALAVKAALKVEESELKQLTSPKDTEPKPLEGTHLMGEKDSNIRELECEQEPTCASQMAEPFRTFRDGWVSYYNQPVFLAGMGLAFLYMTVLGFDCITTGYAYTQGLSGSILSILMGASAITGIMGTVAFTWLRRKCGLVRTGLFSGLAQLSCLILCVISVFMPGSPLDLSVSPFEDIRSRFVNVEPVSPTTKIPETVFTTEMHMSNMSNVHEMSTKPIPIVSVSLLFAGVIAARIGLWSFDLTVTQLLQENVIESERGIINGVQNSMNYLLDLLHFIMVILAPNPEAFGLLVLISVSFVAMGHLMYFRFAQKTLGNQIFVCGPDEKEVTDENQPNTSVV", "conditions": "read-out: EC50 (loss of fluorescence); 24 hours incubation; Hep25 preparations; cited from earlier work"}, "ferroportin [2]": {"target": "T2, ferroportin (Homo sapiens, UniProt Q9NP59)", "T2 sequence (Q9NP59 1-571)": "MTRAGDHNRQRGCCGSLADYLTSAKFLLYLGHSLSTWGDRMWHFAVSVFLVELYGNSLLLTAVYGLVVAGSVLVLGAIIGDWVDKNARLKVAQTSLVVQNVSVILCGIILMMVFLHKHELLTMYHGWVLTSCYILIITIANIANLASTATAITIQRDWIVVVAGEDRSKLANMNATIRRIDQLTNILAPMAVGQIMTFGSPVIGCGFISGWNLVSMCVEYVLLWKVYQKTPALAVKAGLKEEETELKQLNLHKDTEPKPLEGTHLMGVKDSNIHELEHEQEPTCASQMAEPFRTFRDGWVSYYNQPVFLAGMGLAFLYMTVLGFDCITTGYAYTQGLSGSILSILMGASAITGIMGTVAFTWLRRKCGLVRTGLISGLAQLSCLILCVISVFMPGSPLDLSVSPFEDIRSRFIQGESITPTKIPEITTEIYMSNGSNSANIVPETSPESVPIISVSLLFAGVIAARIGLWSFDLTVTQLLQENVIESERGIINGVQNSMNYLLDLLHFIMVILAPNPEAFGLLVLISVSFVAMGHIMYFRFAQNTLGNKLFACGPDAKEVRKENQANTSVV", "experiment": "FPN activity assay: internalization of ferroportin-GFP in stably transfected HEK293 cells", "assay_type": "cell-based", "parameters": "expressed in transfected cells", "method": "Peptide analogues were tested in vitro for induction of internalization of the human ferroportin protein. Following internalization, the ferroporin protein is degraded. The assay used (FPN activity assay) measures a decrease in fluorescence of the receptor. The cDNA encoding the human ferroportin (SLC40A1) was cloned from a cDNA clone from Origene (NM_014585). The DNA encoding the ferroportin was amplified by PCR using primers also encoding terminal restriction sites for subcloning, but without the termination codon. The ferroportin receptor was subcloned into a mammalian GFP expression vector containing a neomycin (G418) resistance marker in such that the reading frame of the ferroportin was fused in frame with the GFP protein. The fidelity of the DNA encoding the protein was confirmed by DNA sequencing. HEK293 cells were used for transfection of the ferroportin-GFP receptor expression plasmid. The cells were grown according to standard protocol in growth medium and transfected with the plasmids using Lipofectamine (manufacturer's protocol, Invitrogen). […] The EC50 of these reference compounds for ferroportin internalization/degradation was determined according to the FPN activity assay described above. […]"}, "ferroportin [3]": {"target": "T2, ferroportin", "experiment": "T47D cell-based ferroportin internalization assay in presence of 0.5% mouse serum albumin (MSA)", "parameters": "a human breast carcinoma adherent cell line which endogenously expresses ferroportin; host or cells: T47D", "conditions": "Table 1C", "method": "The potency of the peptides in causing ferroportin internalization was evaluated in a T47D cell-based assay. […] In this internalization assay, the potency of the test peptides was evaluated in the presence of serum albumin, which is the main protein component in the blood. T47D cells were maintained in RPMI media (containing required amount of fetal bovine serum) and regularly sub-cultured. In preparation for the assay, the cells were seeded in 96-well plates at a density of 80-100 k cells per well in 100 ul volume and allowed to rest overnight. On the next day, test peptides were first prepared in dilution series (10-point series, starting concentration of ˜5 μM, typically 3-4×fold dilution steps), all with 0.5% mouse serum albumin (MSA purified from mouse serum; Sigma, A3139). The test peptide dilution series were allowed to incubate at room temperature for 30 min. Then the media was aspirated from the 96-well cell plate and test peptide dilution series were added. […] The Median Fluorescence Intensity (MFI) of the AF647-positive population was measured (after removing dead cells and non-singlets from the analysis). […] The IC50 potencies were calculated by using 4-parameter non-linear fitting function in Graphpad Prism, and the results are provided in Table 1C."}, "[4]": {"target": "human ferroportin (SLC40A1) fused in frame with GFP, stably expressed in HEK293 cells (human) (UniProt Q9NP59)", "experiment": "cell-based or functional assay"}, "[5]": {"target": "ferroportin endogenously expressed on T47D cells (HTB 133, ATCC) (human) (UniProt Q9NP59)", "experiment": "cell-based or functional assay"}}, "note": "Where two headings read alike, the source gives them in different places."}
{"molecule": "CC[C@H](C)[C@@H]1NC(=O)[C@@H](NC(=O)[C@@H](NC(=O)[C@@H]2CCCN2C(=O)[C@H](Cc2ccccc2)NC(=O)[C@H](Cc2c[nH]cn2)NC(=O)[C@@H](NC(=O)[C@@H](N)CC(=O)O)[C@@H](C)O)[C@@H](C)CC)CSSC[C@@H](C(=O)N[C@@H](CCCCN)C(=O)N[C@H](C(=O)O)[C@@H](C)O)NC(=O)[C@@H]2CSSC[C@@H]3NC(=O)[C@@H]4CSSC[C@H](NC(=O)[C@H](Cc5ccccc5)NC1=O)C(=O)N[C@@H](CSSC[C@H](NC(=O)[C@H](CCCCN)NC(=O)[C@H](CO)NC(=O)[C@H](CCCNC(=N)N)NC(=O)[C@H](Cc1c[nH]cn1)NC3=O)C(=O)NCC(=O)N[C@@H](CCSC)C(=O)N2)C(=O)NCC(=O)N4", "note": "[Hepcidin, Hy-DTHFPIC(1)IFC(2)C(3)GC(2)C(4)HRSKC(3)GMC(4)C(1)KT-OH]", "values": [{"measurement": "EC50", "setting": "[1]", "value": "5 to 15", "unit": "nM"}]}
{"molecule": "CC[C@@H](C)[C@@H](NC(=O)[C@H](N)Cc1ccccc1)C(=O)N[C@H](CS)C(=O)N[C@@H](C(=O)N1CCC[C@@H]1C(=O)N[C@H](Cc1ccccc1)C(=O)N[C@H](Cc1c[nH]cn1)C(=O)N[C@@H](C(=O)N[C@H](CC(=O)O)C(N)=O)[C@H](C)O)[C@H](C)CC", "note": "[RI-Mini Hepcidin, Hy-DPhe-DIle-DCys-DIle-DPro-DPhe-DHis-DThr-DAsp-NH2]", "values": [{"measurement": "DC50", "setting": "ferroportin [2]; Table 6 reference compounds, read-out: Potency EC50", "value": "> 10000", "unit": "nM"}]}
{"molecule": "CC[C@H](C)[C@@H]1NC(=O)[C@@H](NC(=O)[C@@H]2CCCN2C(=O)[C@@H](NC(=O)[C@H](Cc2cnc[nH]2)NC(=O)[C@@H](NC(=O)[C@H](CCC(=O)O)NC(=O)CC(C)C)[C@@H](C)O)C(c2ccccc2)c2ccccc2)CSSC(C)(C)[C@@H](C(N)=O)NC(=O)[C@@H](CCCCN)NC(=O)C[C@H](Cc2ccccc2)NC(=O)[C@H](CCCCNC(=O)CCOCCOCCOCCOCCOCCOCCOCCOCCOCCOCCOCCOCCNC(=O)CCCCCCCCCCC(=O)O)NC1=O", "note": "[compound 4]", "values": [{"measurement": "DC50", "setting": "ferroportin [2]; Table 1C, FPN internalization assay, read-out: IC50: FPN", "value": "> 500", "unit": "nM"}, {"measurement": "IC50", "setting": "ferroportin [3]", "value": "11 to 100", "unit": "nM"}]}
{"molecule": "Hepcidin (peptide)", "values": [{"measurement": "Potency EC50 (nM), FPN activity assay", "setting": "[4]", "value": 34, "unit": "nM"}]}
{"molecule": "Isovaleric_Acid-E-C-H-DIP-P-C-I-dK-(NMe_Lys_AlbuTag)-dK-C-NH2-Trimethylbenzene (peptide)", "values": [{"measurement": "IC50: FPN (nM), FPN internalization assay; *=IC50>500 nM", "setting": "[4]", "value": "> 500", "unit": "nM"}, {"measurement": "IC50: T47D MSA (nM), T47D internalization assay; *=>500 nM", "setting": "[5]", "value": "> 500", "unit": "nM"}]}
{"molecule": "Isovaleric_Acid-E-C-H-DIP-P-C-I-dK-DIP-(NMe_Lys_AlbuTag)-dK-C-am-Trimethylbenzene (peptide)", "values": [{"measurement": "IC50: T47D MSA (nM), T47D internalization assay; *=>500 nM", "setting": "[5]", "value": "> 500", "unit": "nM"}]}
{"molecule": "Isovaleric_Acid-E-T-H-DIP-P-C-I-[Lys_1PEG2_1PEG2_Ahx_C4_Diacid]-bhF-[dLys_PEG11_OMe]-C-NH2 (peptide)", "values": [{"measurement": "IC50: FPN (nM), FPN internalization assay; *=IC50>500 nM", "setting": "[4]", "value": "> 500", "unit": "nM"}]}
{"molecule": "Isovaleric_Acid-E-T-H-DIP-P-C-I-[Lys_PEG12_C6_Diacid]-bhF-[dLys_PEG11_OMe]-Pen-NH2 (peptide)", "values": [{"measurement": "IC50: T47D MSA (nM), T47D internalization assay; *=>500 nM", "setting": "[5]", "value": "> 500", "unit": "nM"}]}
{"molecule": "Isovaleric_Acid-E-T-H-DIP-P-C-I-[Lys_PEG12_C12_Diacid]-bhF-dK-Pen-NH2 (peptide)", "values": [{"measurement": "IC50: FPN (nM), FPN internalization assay; *=IC50>500 nM", "setting": "[4]", "value": "> 500", "unit": "nM"}]}
{"molecule": "Isovaleric_Acid-E-T-H-DIP-P-C-I-dK-bhF-(Lys_Dap_C8_Diacid)-dK-C-NH2 (peptide)", "values": [{"measurement": "IC50: T47D MSA (nM), T47D internalization assay; *=>500 nM", "setting": "[5]", "value": "> 500", "unit": "nM"}]}
{"molecule": "Isovaleric_Acid-E-hSer-H-DIP-P-C-I-[Lys_1PEG2_1PEG2_Ahx_C18_Diacid]-bhF-[dLys_PEG11_OMe]-C-NH2 (peptide)", "values": [{"measurement": "IC50: T47D MSA (nM), T47D internalization assay; *=>500 nM", "setting": "[5]", "value": "> 500", "unit": "nM"}]}
{"molecule": "Mini-Hepcidin 1-9 (peptide)", "values": [{"measurement": "Potency EC50 (nM), FPN activity assay", "setting": "[4]", "value": 712, "unit": "nM"}]}
{"molecule": "RI-Mini Hepcidin (peptide)", "values": [{"measurement": "Potency EC50 (nM), FPN activity assay", "setting": "[4]", "value": "> 10000", "unit": "nM"}]}
